Source: patent US20230357429A1 (JANUX THERAPEUTICS, published 2023)
One block for each binder: values may come before it. Where no end group is shown, it is not given here.

Tests used:
TBD-1 wt = target: T1, TBD-1 wt; experiment: competition ELISA, peptide vs Fab binding to captured biotin-TROP2
T1 construct: Fab; the heavy chain entry is VH-CH1; also called wild-type anti-TROP2 Fab (hRS7); TROP2 Fab

TBD-21 (HC F108A) = target: T2, TBD-21 (HC F108A); experiment: as above
T2 construct: Fab; also called HC F108A mutant

TBD-11 (HC R98A) [1] = target: T3, TBD-11 (HC R98A); experiment: as above
T3 construct: Fab; also called HC R98A mutant

TBD-17 (HC S104A) [2] = target: T4, TBD-17 (HC S104A); experiment: as above
T4 construct: Fab; also called HC S104A mutant

TBD-22 (HC D109A) [3] = target: T5, TBD-22 (HC D109A); experiment: as above
T5 construct: Fab; also called HC D109A mutant

TBD-17 (HC S104A) [4] = target: T6, TBD-17 (HC S104A); experiment: competition ELISA, Fab on captured TROP2
T6 construct: anti-TROP2 Fab, CDR3 HC alanine mutant

TBD-11 (HC R98A) [5] = target: T7, TBD-11 (HC R98A); experiment: competition ELISA, Fab on captured TROP2
T7 construct: anti-TROP2 Fab, CDR3 HC alanine mutant

TBD-6 (LC I93A) = target: T8, TBD-6 (LC I93A); experiment: competition ELISA, Fab on captured TROP2
T8 construct: anti-TROP2 Fab, CDR3 LC alanine mutant

TBD-22 (HC D109A) [6] = target: T9, TBD-22 (HC D109A); experiment: competition ELISA, Fab on captured TROP2
T9 construct: anti-TROP2 Fab, CDR3 HC alanine mutant

[7] = target: T10, TBD-1 wt (anti-TROP2 Fab, hRS7); experiment: competition ELISA, Fab on captured TROP2
T10 construct: non-mutated Fab

[8] = target: T11, Human TROP2 ECD (31-274 AA) (human, UniProt P09758 31-274, biotinylated); experiment: ELISA; biotinylated TROP2 on neutravidin plates, PC titrated, HRP secondary
T11 construct: also called biotinylated TROP2; TROP2-biotin
T11 sequence: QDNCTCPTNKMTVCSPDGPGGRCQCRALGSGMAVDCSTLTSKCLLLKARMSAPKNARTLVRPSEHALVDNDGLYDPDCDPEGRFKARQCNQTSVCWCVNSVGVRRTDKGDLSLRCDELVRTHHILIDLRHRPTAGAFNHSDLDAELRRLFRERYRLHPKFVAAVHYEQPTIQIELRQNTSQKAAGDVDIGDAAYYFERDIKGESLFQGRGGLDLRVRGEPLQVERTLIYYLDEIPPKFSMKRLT

Human TROP2 Full length = target: T12, Human TROP2 Full length (human, UniProt P09758 31-323); experiment: cell-based or functional assay
T12 sequence: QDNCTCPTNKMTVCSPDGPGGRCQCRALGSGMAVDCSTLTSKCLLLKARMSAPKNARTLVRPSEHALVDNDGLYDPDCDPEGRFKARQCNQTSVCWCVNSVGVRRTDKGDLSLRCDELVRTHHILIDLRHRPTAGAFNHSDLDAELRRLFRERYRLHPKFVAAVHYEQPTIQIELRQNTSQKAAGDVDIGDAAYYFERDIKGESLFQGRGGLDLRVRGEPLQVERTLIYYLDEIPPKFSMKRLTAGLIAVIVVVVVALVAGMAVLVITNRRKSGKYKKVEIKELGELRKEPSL

Cyno TROP2 Full length = target: T13, Cyno TROP2 Full length (cynomolgus monkey, UniProt P09758 31-323 (human entry)); experiment: cell-based or functional assay
T13 chain: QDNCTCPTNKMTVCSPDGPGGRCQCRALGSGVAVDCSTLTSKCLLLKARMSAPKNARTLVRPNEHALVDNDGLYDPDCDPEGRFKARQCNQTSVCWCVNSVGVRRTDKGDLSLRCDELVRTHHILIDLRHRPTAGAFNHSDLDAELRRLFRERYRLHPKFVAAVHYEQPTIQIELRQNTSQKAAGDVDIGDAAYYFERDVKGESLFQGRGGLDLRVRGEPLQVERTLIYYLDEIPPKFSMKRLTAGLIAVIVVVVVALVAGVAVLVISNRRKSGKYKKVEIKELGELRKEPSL

Binder: IDFCLIYNWPVCDT (cysteine pairing not given here; also: biotinylated, site not given here) [Peptide-63]
IC50 (TBD-21 (HC F108A)): 5890 nM | IC50 (TBD-11 (HC R98A) [1]): 6810 nM | IC50 (TBD-17 (HC S104A) [2]): 1400 nM | IC50 (TBD-22 (HC D109A) [3]): 110 nM

Binder: VDFCYQYAWPVCSTGD (mask peptide for the TROP2 Fab) [Peptide-52]
IC50 (TBD-17 (HC S104A) [4]): 15700 nM | IC50 (TBD-11 (HC R98A) [5]): 19100 nM | IC50 (TBD-6 (LC I93A)): 12300 nM | IC50 (TBD-22 (HC D109A) [6]): 890 nM | IC50 [7]: 14300 nM

B1: PC-33 (bispecific antibody)
light: GGVDFCALYHWPICYQGGGGSGGLSGRSDAGSPLGLAGSGGSDIQLTQSPSSLSASVGDRVSITCKASQDVSIAVAWYQQKPGKAPKLLIYSASYRYTGVPDRFSGSGSGTDFTLTISSLQPEDFAVYYCQQHYITPLTFGAGTKVEIKRTVAAPSVFIFPPSDEQLKSGTASVVCLLNNFYPREAKVQWKVDNALQSGNSQESVTEQDSKDSTYSLSSTLTLSKADYEKHKVYACEVTHQGLSSPVTKSFNRGEC
heavy: not shown
notes: Masked polypeptide complex: anti-TROP2 F108A, anti-CD3 wt; CD3 mask …
EC50 [8]: 574 nM | H292 Cytotoxicity EC50 (pM) (Human TROP2 Full length): 13200 pM | CyTROP2 HEK293 EC50 (pM) (Cyno TROP2 Full length): 837 pM

B2: PC-40 (bispecific antibody)
light: GGVDFCALYHWPICYQGGGGSGGLSGRSDAGSPLGLAGSGGSDIQLTQSPSSLSASVGDRVSITCKASQDVSIAVAWYQQKPGKAPKLLIYSASYRYTGVPDRFSGSGSGTDFTLTISSLQPEDFAVYYCQQHYITPLTFGAGTKVEIKRTVAAPSVFIFPPSDEQLKSGTASVVCLLNNFYPREAKVQWKVDNALQSGNSQESVTEQDSKDSTYSLSSTLTLSKADYEKHKVYACEVTHQGLSSPVTKSFNRGEC
heavy: EVQLVESGGGLVQPGGSLRLSCAASGSTFYTAVMGWVRQAPGKGLEWVAAIRWTALTTSYADSVKGRFTISRDGAKTTLYLQMNSLRPEDTAVYYCAARGTLGLFTTADSYDYWGQGTLVTVSSGGGGSGGGSGGYLCGPDADETLACYGGGGSGGGLSGRSDAGSPLGLAGSGGGSEVQLVESGGGLVQPGGSLKLSCAASGFTFNKYAMNWVRQASGKGLEWVGRIRSKYNNYATYYADSVKDRFTISRDDSKNTAYLQMNSLKTEDTAVYYCVRHGNFGNSYISYWAYWGQGTLVTVSSGGGGSGGGGSGGGGSQTVVTQEPSFSVSPGGTVTLTCRSSTGAVTSGNYANWVQQTPGQAPRGLIGGTKFLAPGVPDRFSGSILGNKAALTITGAQADDESDYYCVLWYSNRWVFGGGTKLTVLGGGGSQVQLQQSGSELKKPGASVKVSCKASGYTFTNYGMNWVKQAPGQGLKWMGWINTYTGEPTYTDDFKGRFAFSLDTSVSTAYLQISSLKADDTAVYFCARGGFGSSYWYADVWGQGSLVTVSSASTKGPSVFPLAPSSKSTSGGTAALGCLVKDYFPEPVTVSWNSGALTSGVHTFPAVLQSSGLYSLSSVVTVPSSSLGTQTYICNVNHKPSNTKVDKKVEPKSC
notes: Masked polypeptide complex: anti-TROP2 F108A, anti-CD3 with P41S, A49G, N87S ; E227D; CD3 mask YLCGPDADETLACY
EC50 [8]: 3510 nM | H292 Cytotoxicity EC50 (pM) (Human TROP2 Full length): 53200 pM | HCT116 Cytotoxicity EC50 (pM) (Human TROP2 Full length): > 100000 pM | CyTROP2 HEK293 EC50 (pM) (Cyno TROP2 Full length): 10400 pM

B3: PC-48 (bispecific antibody)
light: GGVDFCALYHWPICYQGGGGSGGGSGGSGGASSGAGGSGGGSDIQLTQSPSSLSASVGDRVSITCKASQDVSIAVAWYQQKPGKAPKLLIYSASYRYTGVPDRFSGSGSGTDFTLTISSLQPEDFAVYYCQQHYITPLTFGAGTKVEIKRTVAAPSVFIFPPSDEQLKSGTASVVCLLNNFYPREAKVQWKVDNALQSGNSQESVTEQDSKDSTYSLSSTLTLSKADYEKHKVYACEVTHQGLSSPVTKSFNRGEC
heavy: not shown
notes: Masked polypeptide complex with non-cleavable linker: anti-TROP2 F108A, anti-CD3 wt
EC50 [8]: 3960 nM | H292 Cytotoxicity EC50 (pM) (Human TROP2 Full length): > 100000 pM | HCT116 Cytotoxicity EC50 (pM) (Human TROP2 Full length): > 100000 pM | CyTROP2 HEK293 EC50 (pM) (Cyno TROP2 Full length): 69900 pM

Binder: VDFCYQYGWPICSRLY (mask peptide for the TROP2 Fab) [Peptide-47]
IC50 (TBD-17 (HC S104A) [4]): 27200 nM | IC50 (TBD-11 (HC R98A) [5]): 46200 nM | IC50 (TBD-6 (LC I93A)): 7540 nM | IC50 (TBD-22 (HC D109A) [6]): 2010 nM | IC50 [7]: 6480 nM

Binder: SVLFCVKNLYCWVT (cysteine pairing not given here; also: biotinylated (site not given here)) [Peptide-24]
IC50 (TBD-1 wt): 2780 nM

Binder: YSLVCVKNLYCWNL (cysteine pairing not given here; also: biotinylated, site not given here) [Peptide-31]
IC50 (TBD-1 wt): 2940 nM

Binder: TSLICFRNVYCWNV (cysteine pairing not given here; also: biotinylated, site not given here) [Peptide-30]
IC50 (TBD-1 wt): 1910 nM

B4: PC-49 (bispecific antibody)
light: GGVDFCALYHWPICYQGGGSGGSGGISSGLLSGRSDAGSGGSDIQLTQSPSSLSASVGDRVSITCKASQDVSIAVAWYQQKPGKAPKLLIYSASYRYTGVPDRFSGSGSGTDFTLTISSLQPEDFAVYYCQQHYITPLTFGAGTKVEIKRTVAAPSVFIFPPSDEQLKSGTASVVCLLNNFYPREAKVQWKVDNALQSGNSQESVTEQDSKDSTYSLSSTLTLSKADYEKHKVYACEVTHQGLSSPVTKSFNRGEC
heavy: not shown
notes: Masked polypeptide complex with CL2 cleavable linker: anti-TROP2 F108A, anti-CD3 wt
EC50 [8]: 1360 nM | H292 Cytotoxicity EC50 (pM) (Human TROP2 Full length): 67400 pM | HCT116 Cytotoxicity EC50 (pM) (Human TROP2 Full length): > 100000 pM | CyTROP2 HEK293 EC50 (pM) (Cyno TROP2 Full length): 10600 pM

Other lines, results leading:

IC50 (TBD-1 wt): 1630 nM
Binder: NYLLCVKNLYCWIV (cysteine pairing not given here; also: biotinylated, site not given here) [Peptide-28]

IC50 (TBD-1 wt): 1610 nM
Binder: VDFCSFYRWPICET (cysteine pairing not given here; also: biotinylated (site not given here)) [Peptide-20]

IC50 (TBD-11 (HC R98A) [5]): 3550 nM
Binder: VEFCKQWTWFGCMT (mask peptide for the TROP2 Fab) [Peptide-44]

IC50 (TBD-11 (HC R98A) [5]): 1130 nM
Binder: VEICKQWFYTVCLS (mask peptide for the TROP2 Fab) [Peptide-58]

IC50 (TBD-17 (HC S104A) [4]): 39600 nM | IC50 (TBD-11 (HC R98A) [5]): 409000 nM | IC50 (TBD-6 (LC I93A)): 14500 nM | IC50 (TBD-22 (HC D109A) [6]): 2500 nM | IC50 [7]: 9290 nM
Binder: VDFCYQYGWPICSRVD (mask peptide for the TROP2 Fab) [Peptide-45]

IC50 (TBD-1 wt): 740 nM
Binder: FSLVCVRNLYCWNV (cysteine pairing not given here; also: biotinylated, site not given here) [Peptide-27]

IC50 (TBD-21 (HC F108A)): 1630 nM | IC50 (TBD-11 (HC R98A) [1]): 1780 nM | IC50 (TBD-17 (HC S104A) [2]): 1600 nM | IC50 (TBD-22 (HC D109A) [3]): 120 nM
Binder: PDFCAVYRWPICYQ (cysteine pairing not given here; also: biotinylated, site not given here) [Peptide-64]

IC50 (TBD-1 wt): 2230 nM
Binder: DNLICVKNLWCWIA (cysteine pairing not given here; also: biotinylated, site not given here) [Peptide-26]
